Values belong to the binder of their own block, whether it stands above or below them.
Assays:
RPS2 = RPS2 (UniProt P15880 2-293); experiment: co-IP, anti-FLAG, C-FLAG B3GNT2 cell lysate, mass spectrometry
Procedure: (§1) Cells were plated in 10-cm cell culture dishes and grown to 60-80% confluency. For each condition, two biological replicates were harvested for co-IP. Cells were washed with PBS and 4 mL of lysis buffer (20 mM HEPES, 1% Triton X-100, 150 mM NaCl, 1 mM EDTA, and 10% glycerol) containing protease inhibitor cocktail was added. Cells were scraped and lysate was incubated at 4° C. under rotary agitation for 1 h. Lysate was centrifuged at 14,000×g for 10 min at 4° C. Supernatant was transferred to a new tube and an aliquot was taken as the input. […] For Western blots, 10 μg/mL Chicken Anti-FLAG (Aves labs ET-DY100) and IgY control (R&D Systems AB-101-C) antibodies were biotinylated (Thermo Fisher Scientific 90407) and added to the respective conditions. Lysates with antibodies were incubated at 4° C. under rotary agitation overnight. For each mL of lysate, 50 μL of Pierce Protein A/G Magnetic Beads (Mass spectrometry; Thermo Fisher Scientific 88803) or Pierce Streptavidin Magnetic Beads (Western blot; Thermo Fisher Scientific 88817) was washed twice with lysis buffer. Lysates with antibodies were added to the beads and incubated at 4° C. under rotary agitation for 4 h. Beads were washed with lysis buffer 3 times and resuspended in lysis buffer for storage.
(§2) Magnetic beads were resuspended in 100 mM Tris pH 7.8, reduced, alkylated and digested with trypsin at 37° ° C. overnight. This solution was subjected to solid phase extraction to concentrate the peptides and remove unwanted reagents followed by injection onto a Shimadzu HPLC with fraction collector. Eight fractions were collected and after concentration were injected on a Waters NanoAcquity HPLC equipped with a self-packed Aeris 3 μm C18 analytical column 0.075 mm by 20 cm, (Phenomenex). Peptides were eluted using standard reverse-phase gradients. The effluent from the column was analyzed using a Thermo Orbitrap Elite mass spectrometer (nanospray configuration) operated in a data dependent manner for 54 minutes. The resulting fragmentation spectra were correlated against the known database using Proteome Discover 1.4 (Thermo Fisher Scientific).

RPS23 = RPS23 (UniProt P62266 2-143); experiment: as above
Procedure: as §1, §2

CFL1 = target: T1, CFL1 (UniProt P23528 2-166); experiment: as above
T1 construct: also called NP_005498.1
Procedure: as §1, §2

CDSN = target: T2, CDSN (UniProt Q15517 33-529, limits assumed); experiment: as above
T2 construct: also called NP_001255.4
T2 sequence (looked up): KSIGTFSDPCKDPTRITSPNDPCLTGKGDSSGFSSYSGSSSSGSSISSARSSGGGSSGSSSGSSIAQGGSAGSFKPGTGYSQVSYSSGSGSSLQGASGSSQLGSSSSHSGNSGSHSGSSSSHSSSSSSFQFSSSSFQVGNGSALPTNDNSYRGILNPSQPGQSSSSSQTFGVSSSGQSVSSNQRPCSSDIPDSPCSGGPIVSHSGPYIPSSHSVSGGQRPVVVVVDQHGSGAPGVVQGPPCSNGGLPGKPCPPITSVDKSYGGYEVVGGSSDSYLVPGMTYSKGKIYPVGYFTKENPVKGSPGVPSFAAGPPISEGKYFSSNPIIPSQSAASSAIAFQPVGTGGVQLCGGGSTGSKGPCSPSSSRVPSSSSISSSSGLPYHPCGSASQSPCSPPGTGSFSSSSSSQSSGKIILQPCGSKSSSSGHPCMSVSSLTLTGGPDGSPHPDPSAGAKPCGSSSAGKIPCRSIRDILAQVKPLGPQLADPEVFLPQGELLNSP
Procedure: as §1, §2

RPS18 = RPS18 (UniProt P62269 2-152); experiment: as above
Procedure: as §1, §2

POF1B = target: T3, POF1B (UniProt Q8WVV4-1 1-595, limits assumed); experiment: as above
T3 construct: also called NP_001294869.1 (+2)
T3 sequence (looked up): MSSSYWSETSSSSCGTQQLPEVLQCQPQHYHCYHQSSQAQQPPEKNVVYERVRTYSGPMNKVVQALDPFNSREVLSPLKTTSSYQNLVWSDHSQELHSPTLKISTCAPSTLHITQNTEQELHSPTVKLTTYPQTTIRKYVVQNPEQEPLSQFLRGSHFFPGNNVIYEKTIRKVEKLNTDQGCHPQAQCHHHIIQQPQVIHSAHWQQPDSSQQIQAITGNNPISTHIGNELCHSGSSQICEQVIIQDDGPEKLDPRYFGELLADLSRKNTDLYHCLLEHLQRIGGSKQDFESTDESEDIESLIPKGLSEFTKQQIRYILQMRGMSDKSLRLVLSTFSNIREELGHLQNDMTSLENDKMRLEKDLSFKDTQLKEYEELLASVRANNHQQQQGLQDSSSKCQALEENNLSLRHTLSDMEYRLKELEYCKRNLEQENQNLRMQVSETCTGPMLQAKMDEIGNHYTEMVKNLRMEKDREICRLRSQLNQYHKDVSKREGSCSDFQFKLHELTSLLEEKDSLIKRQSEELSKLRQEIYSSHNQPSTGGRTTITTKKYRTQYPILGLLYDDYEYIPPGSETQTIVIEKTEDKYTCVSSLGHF
Procedure: as §1, §2

DEFA3 = target: T4, DEFA3 (UniProt P59666 65-94, limits assumed); experiment: as above
T4 construct: also called NP_005208.1 (+1)
Procedure: as §1, §2

ARG1 = target: T5, ARG1 (UniProt P05089 1-322); experiment: as above
T5 construct: also called NP_000036.2 (+1)
T5 sequence (looked up): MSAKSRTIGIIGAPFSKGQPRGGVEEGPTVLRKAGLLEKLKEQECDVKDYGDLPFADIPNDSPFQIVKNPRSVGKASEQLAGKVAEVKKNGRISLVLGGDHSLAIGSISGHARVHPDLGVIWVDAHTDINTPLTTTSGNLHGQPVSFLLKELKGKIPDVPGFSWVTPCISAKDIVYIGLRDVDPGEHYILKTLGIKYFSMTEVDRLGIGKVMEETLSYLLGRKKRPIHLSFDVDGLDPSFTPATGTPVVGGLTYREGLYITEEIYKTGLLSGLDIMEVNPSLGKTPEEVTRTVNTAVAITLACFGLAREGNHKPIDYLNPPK
Procedure: as §1, §2

TMEM59 = target: T6, TMEM59 (UniProt Q9BXS4 36-323, limits assumed); experiment: as above
T6 construct: also called NP_001291972.1
T6 sequence (looked up): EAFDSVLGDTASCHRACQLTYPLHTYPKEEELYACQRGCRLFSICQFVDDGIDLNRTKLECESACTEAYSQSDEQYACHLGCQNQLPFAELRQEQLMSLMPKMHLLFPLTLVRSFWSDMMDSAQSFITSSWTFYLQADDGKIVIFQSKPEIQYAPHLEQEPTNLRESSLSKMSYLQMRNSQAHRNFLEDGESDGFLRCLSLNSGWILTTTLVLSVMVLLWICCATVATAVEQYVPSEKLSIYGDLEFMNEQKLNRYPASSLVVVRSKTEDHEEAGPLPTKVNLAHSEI
Procedure: as §1, §2

RPS13 = RPS13 (UniProt P62277 2-151); experiment: as above
Procedure: as §1, §2

EMD = target: T7, EMD (UniProt P50402 1-254); experiment: as above
T7 construct: also called NP_000108.1
T7 sequence (looked up): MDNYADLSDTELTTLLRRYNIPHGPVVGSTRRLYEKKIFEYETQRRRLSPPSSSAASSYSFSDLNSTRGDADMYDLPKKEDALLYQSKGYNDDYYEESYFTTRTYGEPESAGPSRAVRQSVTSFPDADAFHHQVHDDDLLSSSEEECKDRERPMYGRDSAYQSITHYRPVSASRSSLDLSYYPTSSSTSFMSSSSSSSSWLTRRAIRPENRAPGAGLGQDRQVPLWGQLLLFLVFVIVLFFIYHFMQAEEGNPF
Procedure: as §1, §2

[1] = target: T8, CD276, endogenous in A375 melanoma cells (human, UniProt Q5ZPR3 29-534, poly-LacNAc glycosylation added by B3GNT2 (sites not given)); experiment: flow cytometry of TREML2 Fc chimera on fixed A375 cells with CD276 knocked down by CRISPR
T8 construct: whole, on cells; On fixed A375 cells in flow cytometry; In the co-IP it comes from the lysate of these cells; also called B7H3
T8 sequence (looked up): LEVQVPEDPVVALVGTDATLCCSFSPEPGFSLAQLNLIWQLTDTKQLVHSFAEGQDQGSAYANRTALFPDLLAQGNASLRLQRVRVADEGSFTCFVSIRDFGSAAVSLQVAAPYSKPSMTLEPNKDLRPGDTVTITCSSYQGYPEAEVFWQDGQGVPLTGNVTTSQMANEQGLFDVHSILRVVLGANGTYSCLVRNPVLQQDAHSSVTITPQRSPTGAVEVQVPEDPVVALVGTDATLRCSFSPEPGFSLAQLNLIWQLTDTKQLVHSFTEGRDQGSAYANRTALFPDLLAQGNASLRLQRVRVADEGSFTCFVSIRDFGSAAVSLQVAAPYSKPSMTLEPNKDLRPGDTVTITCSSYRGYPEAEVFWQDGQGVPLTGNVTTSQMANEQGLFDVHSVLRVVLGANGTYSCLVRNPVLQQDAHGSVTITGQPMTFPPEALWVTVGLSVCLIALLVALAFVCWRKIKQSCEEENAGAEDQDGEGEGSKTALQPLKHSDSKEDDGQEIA

T4 sequence (P59666 65-94 limits assumed): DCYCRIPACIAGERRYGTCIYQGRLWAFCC
T1 sequence (P23528 2-166 limits assumed): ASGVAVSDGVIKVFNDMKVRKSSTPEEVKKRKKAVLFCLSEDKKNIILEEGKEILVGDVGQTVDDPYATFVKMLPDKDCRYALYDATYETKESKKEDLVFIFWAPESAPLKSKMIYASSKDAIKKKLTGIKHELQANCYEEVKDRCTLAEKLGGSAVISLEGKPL

- co-IP mass spectrometry count (RPS2): 24
- co-IP mass spectrometry count (RPS23): 16
- co-IP mass spectrometry count (CFL1): 6
- co-IP mass spectrometry count (CDSN): 0
- co-IP mass spectrometry count (RPS18): 18
- co-IP mass spectrometry count (POF1B): 0
- co-IP mass spectrometry count (DEFA3): 8
- co-IP mass spectrometry count (ARG1): 6
- co-IP mass spectrometry count (TMEM59): 0
- co-IP mass spectrometry count (RPS13): 4
- co-IP mass spectrometry count (EMD): 2
B1: C-terminal FLAG tagged B3GNT2 (enzyme, human, UniProt Q9NY97 1-397, looked up)
chain: MSVGRRRIKLLGILMMANVFIYFIMEVSKSSSQEKNGKGEVIIPKEKFWKISTPPEAYWNREQEKLNRQYNPILSMLTNQTGEAGRLSNISHLNYCEPDLRVTSVVTGFNNLPDRFKDFLLYLRCRNYSLLIDQPDKCAKKPFLLLAIKSLTPHFARRQAIRESWGQESNAGNQTVVRVFLLGQTPPEDNHPDLSDMLKFESEKHQDILMWNYRDTFFNLSLKEVLFLRWVSTSCPDTEFVFKGDDDVFVNTHHILNYLNSLSKTKAKDLFIGDVIHNAGPHRDKKLKYYIPEVVYSGLYPPYAGGGGFLYSGHLALRLYHITDQVHLYPIDDVYTGMCLQKLGLVPEKHKGFRTFDIEEKNKNNICSYVDLMLVHSRKPQEMIDIWSQLQSAHLKC
notes: Bait of the co-IP; pulled down with mouse anti-FLAG from cell lysate; also called C-FLAG B3GNT2; C-term flag; not shown: FLAG tag at the C-terminus

- binding result [1]: no binding (tested: 25 µg/mL)
B2: TREML2 recombinant Fc chimera protein (R&D Systems 3259-TL-050) (Fc fusion, UniProt Q5T2D2 19-268, looked up)
chain: GPSADSVYTKVRLLEGETLSVQCSYKGYKNRVEGKVWCKIRKKKCEPGFARVWVKGPRYLLQDDAQAKVVNITMVALKLQDSGRYWCMRNTSGILYPLMGFQLDVSPAPQTERNIPFTHLDNILKSGTVTTGQAPTSGPDAPFTTGVMVFTPGLITLPRLLASTRPASKTGYSFTATSTTSQGPRRTMGSQTVTASPSNARDSSAGPESISTKSGDLSTRSPTTGLCLTSRSLLNRLPSMPSIRHQDVYS
notes: Bought reagent; also called TLT2; Fc part of the bought chimera not given
